# Assay: soluble on expression in E. coli; label from the status in PepcDB or PDB records
row,Sequence,soluble on expression in E. coli
1,MGSDKIHHHHHHMTIETIKRIIEEENVRFIRLQFTDINGTLKNLEITPDVFLESWEDGIMFDGSSIEGFVRIEESDMYLKPVLDTFAVLPWTVDGAKSARVICDVYTPDGKPFEGDPRYRLRRMMEKAEQLGYTPYAGPEMEFFILPINEKGEPVPEFLDHGGYFDLLPLSKVEEIRRDIAIALEKMGITVEATHHEVAPSQHEVDFRYDTFLRTADNAQTVKLVIKTMAIFHGYHATFMPKPFYGVNGSGMHVHMSLFRGDKNAFYDPDDPLGLSKELRYFVGGILKHAKALAAVTNPTINSYKRLVPGYEAPVYISWSVGNRSALIRIPKARGKATRLEYRSPDPSCNIYLAFAAILAAGLDGIINKIEPPAPVEENIYHMTSERREELNIESLPGSLKEAVEELKKDDVIIDALGEHIFEKFVEAAEKDWKEFSTYVTNWELQRYLYL,not soluble
2,ELLKSGKAKDRFEGEENAPVTIVEYASLTCVHCAHFYNDVLPQIRKKYIKTGKVKLIFRDFAFDSRATAGFMLARCAPEDRYFPLIEVLFQKQSEWVWARDAVTPLKKIGLMAGFTDESFNACLKNQSILDEVNASFERGKELGVNATPTFFINGNKYEGAMSVEAFFSVIDSFLKN,not soluble
3,MSLAEQLAIADLQVDIKQIPLKQPFVTALHRVDAVNAVRVTVRLANGVTGVGTCTPNEKVTGDSLSSARAVIEETIKPLVLGKNLTDWKELLNTVKTSIVHNAPAKAAVEIALYNTRANLFGLTLSQLLGGKGGSVETDYTISIGKAEQMIADAQKMVDQGFKTLKLKLGAGHLKRDIKLVEDLAYAAGPMVHLRLDMNQACDVRQTMQAAEYWHKQGLLIDFIEQPVPAWDLDSMAYLTRHSPYPIMADESVESYEDAQRVLAKNACDYINIKLMKTGGLSEAQKINDLAESRGVPTMVGSMIESIESLAAACAFYRANPNTIFADLDAIFMVDQDPDLNSYAECVGDNIVVREGHHHHHH,soluble
4,MGSDKIHHHHHHMSFSNEDRDVFIIKTDRMIDRGALMSRYSRASDPDIRSVFHREFEGNQKRSEDFYRRIFLEYGDESIAELVTAQVGIQNVSNVISKVIEEIRIGLSYLEKSTRYVAYDRKVDGHYLFMQAEKIGLSGEAAREYTDLCNRLFDLYSSTLPRIEEEISRQWPIESFDFNIDGNPRNYKELDENGRKLAQKSYRSSVRSRALDDARFILPASTLTNMGVSGNGRSFIHLIQKLMEYGVPESERLAHDLYEELKGEFPQIIDDALSQHGQDIINYKRSLASLFPYTDGGRFEKVRLIKYSNEREEMQKVLALLMYPFAEDASGIISRIKAMELSEASAILERIRDLRKNRRMKVGRPFEAVNYVFEVTTNYGAFRDLQRHRFLSIVRKPLTVSYGFDVPPIIAKMPDLSEEYAEAMKDAERVYRIIKERYGAWIAQYAVPFAYRYPVVFTTNLAEATYFIELRSTPQAHFDLRDIAIRMYNEIKSVHPSLAGIIKFVDTGDYPLGRLSAEVRKNVKAGGI,not soluble
5,IEYETHFFNEVTYLVDYLKVKALMMIPKNKKDIKRIVIYLRGGKGQVGRVRAARLMQFANEYTLVIGPYYRGNNGSEGRDEFYRGDLNDVTHLIRLLNQNYPSAFIHMVGFSRGGLQGLLTFNDLPVDSYMIWGGVSDIHLMYEERVDLRGMLRRMVGHPKKDAKAYKSRDAMQFIKKDSPPILIIHGGKDIQVGIHQAYDLEKKLKSKGIYYQTYYQLDEGHVPRPPAMRDVIRYIHQWMNNVENKN,not soluble
6,MIIYTTPTALILEEQGERVEFDRRNGKVLEKPEESLEILDQDVVLCGNVEFLIGKISFDEQHFLFFVVDSSVVACYRGTSAESSHSIRRIERVIAINVKSDGSVIKSQITPGSGTKLKQGTEKIMKFFAEKVTKAEPRPALLDDVLKLFNDSKDFYFCRSRDVTISSQKYFEKREAHTSEDSFFWNKRMVGNLGEAKISDKFTCPIMQGYVATSQLEITDQINAYLTITIISRRSTRRAGARYLRRGIDEASNVANFVETELILNIFEHELSFVQCRGSIPVFWSQRGFKYRPPLIINRSVEETHGVFTEHFKRLKAHYDTPLVAVSLVDQRGRELPLAQRFLEHCVKADDNDVTFFSFDLHQHCRGLNFQKLQTLISSMEETLKTIGFCWVDKTGEVVQSQKGVVRTNCIDCLDRTNLVQGQISLFVVLQQAQRLGIFGPLCEPPEVLVQTMQTMWADNGDVISTQYAGTAALKGDVTRNGERKLMGVMKDGYNSASRYYLTHTKDAQRQKAINIVTGQTEADENAEEEENEKEEEENISRMVTETIQFLVPTQQTVIAGWGLINAFQSSDEIDTVVILTRSNLYIVTYEIDGEKMTDVQIVALEDINTIQTGTSGNNRQCARLETLEGVFIWRPSTVRLFNNTAIRLKSLEEANEYISSVAEQIQVGRNMLTGAEGSVVPVAKITIPQMSVHRKSMAAMGALFGKIKRVGKPSSLSKSASTISTAQLPETDGNESDASQKSDHLMTKILKMSQFKSDSPQPEPFSSLLPAISECQTKISLL,not soluble
7,MGSDKIHHHHHHMNLPLQGIKVVELGQLIAGPFAAKILAEFGAEVIKVEPPLTGDPLRKWRLLHNGTSVWWAVQSRNKQSVTLDLRQPQAQEMVRRLIRDADVLVENFRPGTLEGWGLSWEDLHALNPKLIMLRVSGYGQTGPYRDRPGFGVIGEAMGGLRHLSGEVGRTPVRVGVSIGDSLAALHGVIGILLALRHREQNAGEGQQIDVALYESVFNMMESLIPEYSVFNTVREPAGSSLPGIAPTNAYRCNDGKYALIAGNGDSIYRRLMEKIGRPDLANDPQLEHNDGRVRHVARIDAAISTWTAERSLDDVLAALTDARIPAGKIYDAADIASDPHYQARDMLLQSALDDGTPVTVPGIVPKLQDTPGQIRSPAPTLGQHTDAVLQAHGIDAATREEWRRLGII,not soluble
8,MQERDKEPLQERFFRPHFLQAPGDMVAHEGRLCRLDCKVSGLPPPELTWLLNGQPVLPDASHKMLVRGTGVHSLLIDPLTQRDAGTYTCVATNKTGQNSFSLELTVVAKEVKKAPVILEKLQNSGVPEGHPVRLEGRVIGMPPPVFYWKKDNETIPFTRERISMHQDTTGYVCLLIQPAKKSDAGWYTLSAKNEAGIVSCTARLDIYAQWHQQIPTPISIRPSGSRYGSLTSKGLDIFSAFSSVESTMLYSCTSRSVVESDEL,not soluble
9,AEESSKAVKYYTLEEIQKHNNSKSTWLILHYKVYDLTKFLEEHPGGEEVLREQAGGDATENFEDVGHSTDARELSKTFIIGELHPDDRSKITKPSESIITTIDS,soluble
10,SPVRTECPPPAGASTTSAASLIPPPPINTQQPGVATSLLYSGSKFRGHQKSKGNSYDVEVVLQHVDTGNSYLCGYLKIKGLTEEYPTLTTFFEGEIISKKHPFLTRKWDADEDVDRKHWGKFLAFYQYAKSFNSDDFDYEELKNGDYVFMRWKEQFLVPDHTIKDISGASFAGFYYICFQKSAASIEGYYYHRSSEWYQSLNLTHVPEHSAPIYEFR,soluble
11,MKIFAVVVTYNRLALLKKVIDLLKRQTRQLDSIVIVNNGSTDGTKEWLEQEKNITLINQSNSGGAGGFETGVKYAYENEADWIWMMDDDVFPNIDCLEKLLGWTSISQCIQPRRYYSDDVEVNFEQWLDPITYSKFGYWQEKSFNNGKKFCAINVGCFEGMFVSKSIVNKIGFPDKRFFIAEDDTIYGFAASFYTNVILVSDAIMVRARRSSDRSVSPMYTYYACRNFHLVYESLNLLLDKKNRFLYIKYIYQFVHQIYLSIFLYDNKMKHLISVFRGFYDCFRKKNGATYLEHHHHHH,not soluble
12,MSAGVQLPLDLPWRPALGREHFLVAACNASAVALVEAWPHWPAPAACIHGPTGAGKTHLAQVFATRAAAVVLDPAVILGTDPLTLFEGGRAAVIEDADRAGLPEATLFHLLNAARQRGGSLLLTALSPPARWGVHLADLRSRLAALPAEGLCEPDDELMAAVLLKLFSDRGLDVAPGAIGYLLPRMERSFAAARDLVVHADALALREGRAVTVPLLRQLLATPDRADRLEHHHHHH,not soluble
13,MSLKQSHIRNFAIIAHIDHGKSTLADQIMSLTQTVSAREQHAQLLDDMTVEQAHGVTVKARTVRNYYQADDGQEYEYNLIDTPGHVDFNYEVAKSLAATEGAILLVDATQGVQAQTIANYRIAKQRQLTLIPVLNKVDLPSADIDAALAQLNDLDSAFTPEQVLQISAKTGQGVPAVLEAIKQRLPAPQGDLHQPLKALVFDSLYDPYQGVIAYVRLIDGQLKSQQALCLMQGQQDFNGKAIGVFAPQMHPQESLSAGDVGYVVTGIKDPRKVRVGDTLTSVATPTQRPLAGYQPAKSMVFAGLYPKNNDYPALKEAVQKLNLNDPSFTYVEERSEALGVGFRCGFLGTFHLQIIRERLHDEYGVDVLTTAPNVTYHVTLTNGQQVIVNNPVQFPAFSLIKEVTEPFMKAEITMPADNLNAVLKLAEQHKGTLIDLANSGDLIVASLKIPLSEIAYHFFSELKSVSHGFASLSTAFMANEVSDLVKVEVDINEGHHHHHH,soluble
14,MSLRDHGAPYGAHTLAYRPSGELLLVRHEGVDMWVLPGGELDRGESFQEAALRELGEESGIEATIEGLGMLGRVEFYCDGNMAWGVLPVYEAQAETTDIAVDDPDHEISEAQWFDKLPADTRDREEILQWRGQRFSGREGHHHHHH,soluble
15,MITMNMNDYKNKRVPPDWCPGCGNFAQLSAITMALAELKIDPKDVVVASGIGCSSNMPEFLNTYGFHGLHGRLVPFAAGVKWANSKLTVIAYGGDGDGFFEGTQHFYHTAKRNVDITYMVSDNQVFGLTTGQASPTAPIGLKTKTTPDGNIETPFNPIAFALNAGATFVARAFSGDIKHLKDITVRAIKHKGFSFIDVISPCVTWNKENSYEYFRPRVYHLENNDVTNFDQAYKLAFEWGDHIPIGVFYEVERPTYEDLDEVLKEGPLVEQGIHKLTEDDLEEFA,not soluble
16,MGCLATPVRTEVLKALEYSQRICALRSCSRFIRSPRAMFKRQHTDADVLEHPVSASAPATWSLIGEHTDHAGGVVLMSVAQLRTHVEATTRADDIVSVDYYIADPEMPVQQSAISLSDVFEWQNSLSGDHEPLESP,not soluble
17,MNNRSAVRILRLPAVIQKTGMARATIYDWLNPKSPRYDATFPKKRMLGVKSVGWIEAEIDEWLSQRCKLI,soluble
18,GPGSMLARGCVLRWHAVSARRVLGLHDGQSYTPADIKKAFRERALTAHPDAGGDADGFRQLQRAYEVLLHEHSVGKKGSEAAAASDDSEGGSGFYAHPHAEWCNDMRSQRAYWRDMYTEMNMNPNSCGSHRHASNTHYQARQHYRTYGEGLGEDFQKEFKSSSFAGGGQRGSQMNFSTWYFYRPYYSNYRNPFGTGFTPEEIRRAEQEQRRGFARAVARHACLWSGLAFVVYLHERNNRVWRAVEARDKGYKDPEYWEQLRKDEEEARRRSRAPLRLEQHWLDAPLMRSLMDLTEGGHSGGCGKNGQDAEDNISGAARAGTAWATQQARMAQERRRQAMSSTRGMRRGASGDVGGPRVVSYQGRPFTPNGVRGMRNTAPKTPKTYADDVTYEMDDDDDV,not soluble
19,MKQHILVLEDANQRRTIILDEQQYSIGRHSGTSIQIHSRQASRHHATLMRKTNSKTNEECFWIIDGDLEGNKSQNGVFVNGEKRLIHELKNGDLINFGCSINALEHHHHHH,not soluble
20,MSLQTYSSSKRFNINVSQTIGRRIYMEDMVMIKGELFDGIDYIGVFDGHNGKDAAKKAMETFHKLLDEYLIKSDHYLEHLNHICNEIQQLISFTTASGTTASVIIIREDDVIFCYIGDSPIYIKSNEQVKKISIDHNTSNEEEVKRIINCGGSVVDINGTKRVNSKIVLTRSLGDKSLHPPLTNEPTIISIPLNEIDSIIVASDGISSISCELLNELTNPTFGLEQQAVNIRNIAYEKNSPDNISVVVIQITQPIISEGHHHHHH,soluble

# Source: the DeepSol protein solubility set
